Experimental data taken from US20190263922A1 (TIGA TX, published 2019).
Ends that are not written are not given here.

T1: circular peptide YNCEPANPSEKNSPSTQYCYS (human, circular (cysteine-based loop, Pepscan technology); covalently linked to the plate)
T1 peptide: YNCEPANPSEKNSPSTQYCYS

T2: linear peptide NSPSTQYGPANPSEK (human, also: covalently linked to the plate)
T2 peptide: NSPSTQYGPANPSEK

T3: human CD20 (human, UniProt P11836 1-297)
T3 construct: whole, on cells; Always presented on cells; also called MS4A1; CD20 WT
T3 sequence (looked up): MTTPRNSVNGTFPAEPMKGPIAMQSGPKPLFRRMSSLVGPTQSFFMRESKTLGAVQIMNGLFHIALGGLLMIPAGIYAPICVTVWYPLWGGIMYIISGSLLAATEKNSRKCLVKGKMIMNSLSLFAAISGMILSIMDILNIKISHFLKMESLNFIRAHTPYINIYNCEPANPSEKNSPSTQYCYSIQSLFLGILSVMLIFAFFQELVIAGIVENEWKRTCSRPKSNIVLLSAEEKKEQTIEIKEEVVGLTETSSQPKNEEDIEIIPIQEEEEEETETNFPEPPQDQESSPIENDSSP

T4: CD20 single mutant A170P (human, UniProt P11836 1-297)
T4 construct: whole, on cells
T4 sequence (looked up): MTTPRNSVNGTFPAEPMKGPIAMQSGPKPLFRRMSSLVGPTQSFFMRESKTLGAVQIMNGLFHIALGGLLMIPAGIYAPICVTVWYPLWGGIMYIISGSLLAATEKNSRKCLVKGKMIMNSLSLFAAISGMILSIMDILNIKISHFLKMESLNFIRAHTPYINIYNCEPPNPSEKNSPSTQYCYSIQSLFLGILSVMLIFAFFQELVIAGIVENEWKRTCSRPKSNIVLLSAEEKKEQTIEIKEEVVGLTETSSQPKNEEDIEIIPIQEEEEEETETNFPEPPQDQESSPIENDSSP

T5: CD20 mutant T159K/N163D/N166D (human, UniProt P11836 1-297)
T5 construct: whole, on cells; also called KDD
T5 sequence (looked up): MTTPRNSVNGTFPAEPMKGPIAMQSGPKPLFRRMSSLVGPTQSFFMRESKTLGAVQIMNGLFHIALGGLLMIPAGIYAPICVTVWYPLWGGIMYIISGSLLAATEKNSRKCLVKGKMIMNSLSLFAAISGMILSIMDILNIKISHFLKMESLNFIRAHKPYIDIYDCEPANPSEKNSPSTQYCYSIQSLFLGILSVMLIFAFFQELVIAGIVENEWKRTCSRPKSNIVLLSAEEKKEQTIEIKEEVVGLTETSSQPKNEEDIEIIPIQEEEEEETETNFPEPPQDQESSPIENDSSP


Tests used:
[1] = molecular target: T1, circular peptide YNCEPANPSEKNSPSTQYCYS; assay: PepScan ELISA, 1 ug/mL mAb on plate-linked peptide
Procedure: (§1) Recognition of peptides by the CD20 mAb was assessed in a PepScan-based ELISA as previously described. ⁽²⁰⁾ Briefly, 1 μg/mL mAb was added to plates with covalently linked peptides and incubated overnight at 4° C. After extensive washing, bound mAb was detected with a HRP-linked rabbit-anti-mIgG (DakoCytomation) for 1 h at 25° C. Unbound detection Ab was washed away. Plates were developed using ABTS substrate and color development quantified using a CCD camera and an image-processing system.

[2] = molecular target: T2, linear peptide NSPSTQYGPANPSEK; assay: PepScan ELISA, 1 ug/mL mAb on plate-linked peptide
Procedure: as §1

human CD20 [3] = molecular target: T3, human CD20; assay: LigandTracer Green, 10 nM FITC-labeled mAb on SKBR3-CD20 cells, OneToOne fit, competitive dissociation (100 nM unlabeled mAb of the same clone)
Procedure: (§2) Kinetics analysis of interactions between the mAbs and CD20 was performed by using the LigandTracer green Technology (Ridgeview Instruments AB). 10⁶ SKBR3-CD20 cells were seeded on one side of a 10 cm culture dish (Greiner) as target cell area and association of 10 nM FITC-labeled CD20 mAb was measured. For non-competitive or competitive dissociation, labeled mAb solution was replaced by RPMI culture medium or 100 nM unlabeled mAb of the same clone, respectively. Analysis was performed using an OneToOne fitting model in TraceDrawer (Ridgeview Instruments AB).
(§3) A slow Ab off-rate might favor the formation of Ab-Clq complexes, the first component of the classical complement pathway. […] To characterize interaction kinetics and affinity of mAbs, we used the LigandTracer technology to record real-time binding and dissociation of Abs to cellular receptors.

human CD20 [4] = molecular target: T3, human CD20; assay: LigandTracer Green, 10 nM FITC-labeled mAb on SKBR3-CD20 cells, OneToOne fit, non-competitive dissociation
Procedure: as §2, §3

human CD20 [5] = molecular target: T3, human CD20; assay: FACS on Daudi cells
CD20 single mutant A170P = molecular target: T4, CD20 single mutant A170P; assay: FACS, HEK293F cells transfected with CD20 A170P
Procedure: (§4) One day post-transfection, cells were harvested, washed in FACS buffer and stained for 30 min with 5 μg/mL CD20 mAbs on ice. mAb binding was detected with a goat-anti-hIgG-APC or goat-anti-mIgG-APC Ab (Jackson). Cells were measured on a FACS Canto II (BD).

[6] = molecular target: T5, CD20 mutant T159K/N163D/N166D; assay: FACS, HEK293F cells transfected with CD20 T159K/N163D/N166D, 5 ug/mL mAb
Procedure: as §4
Therefore, we first performed a rough epitope mapping experiment with two CD20 mutants, with amino acids mutated in either the small (T159K/N163D/N166D) or larger (A170S/P172S) loop of CD20 (FIG. 4B).

| binding result [1] | binding result [2] | Kd (human CD20 [3]) | koff (human CD20 [3]) | kon (human CD20 [3]) | Kd (human CD20 [4]) | koff (human CD20 [4]) | kon (human CD20 [4]) | binding result (human CD20 [5]) | binding result (CD20 single mutant A170P) | binding result [6] | Binder |
| --- | --- | --- | --- | --- | --- | --- | --- | --- | --- | --- | --- |
| binds | binds | 2.65 nM | 6.92e-05 s⁻¹ | 26100 M⁻¹ s⁻¹ | 1.05 nM | 3.91e-05 s⁻¹ | 37300 M⁻¹ s⁻¹ | – | – | – | m1 (mIgG2c-CD20 mAb) (antibody, V domains shown, FITC- or Alexa647-labelled in the kinetic assays; label sites not given, Mouse IgG2c hybridoma mAb; FITC- or Alexa647-labeled in the kinetic assays) VH: QAYLQQSGAELVRPGASVKMSCKASGYTFTSYNLHWVKQTPRQGLEWIGAIYPGNGDTSYNQKFKGKATLTVDKSSSTAYMQLSRLTSEDSAVYFCARSNSYGSTYWYFDVWGTGTTVTVSS VL: QIVLSQSPAVLFASPGEKVTMTCRARSSVSYMDWYQQKPRSSPKPWIYATSNLASGVPARFSGSGSGTSYSLTISRVEAEDAATYYCQQWTSNPPTFGSGTKLEIK |
| – | – | – | – | – | – | – | – | binds | binds | binds | m7 (mIgG2b-CD20 mAb) (antibody, V domains shown, Mouse IgG2b hybridoma mAb) VH: QAYLQQSGAELVRPGASVKMSCKASGYTFASYNMHWIKQTPRQGLEWIAAIYPGNGDTSYNQKFKGKATLTVDKSSSTAYMQLSSLTSEDSAVYFCARTYYYGSSPYWSFDVWGTGTTVTVSS VL: DIQMTQSPASLSASVGETVTVTCGASYNIYGALNWYQRKQGKSPQLLIYGATNLADGMSSRFSGSGSGRQYSLKISSLHPDDVATYYCQNVLSNPPTFGGGTKLEIK |
